Assay results as given in the supplement of paper PMC9112550, “Optimization of the antimicrobial peptide Bac7 by deep mutational scanning” (BMC Biology, 2022).

Test system: Escherichia coli TOP10
Assay: shrunken log2 fold change of peptide-encoding DNA abundance (4.5 h post-induction vs induction); higher = less antimicrobial activity (less host growth inhibition)
Conditions: time post-induction: 4.5 h; library: site-saturation at positions 5, 18, 19, 20
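Also: peptides expressed intracellularly from a pBAD plasmid library in pooled LB shake-flask culture, induced with 0.3% L-arabinose, DNA abundance read by NGS, three biological replicates, DESeq2 with apeglm shrinkage.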

Sequence | shrunken log2 fold change
RRIRARPPRLPRPRPRPDKAPRP | 0.121
RRIRARPPRLPRPRPRPDLAPRP | 1.07
RRIRARPPRLPRPRPRPDLKPRP | 0.523
RRIRARPPRLPRPRPRPDLYPRP | 0.00132
RRIRARPPRLPRPRPRPDMVPRP | 0.308
RRIRARPPRLPRPRPRPDNMPRP | -0.45
RRIRARPPRLPRPRPRPDPAPRP | 1.3
RRIRARPPRLPRPRPRPDPDPRP | 1.3
RRIRARPPRLPRPRPRPDPFPRP | 0.0855
RRIRARPPRLPRPRPRPDPQPRP | 0.698
RRIRARPPRLPRPRPRPDQAPRP | 0.026
RRIRARPPRLPRPRPRPDQRPRP | 0.267
RRIRARPPRLPRPRPRPDRFPRP | 0.414
RRIRARPPRLPRPRPRPDRSPRP | -0.0282
RRIRARPPRLPRPRPRPDSSPRP | 0.371
RRIRARPPRLPRPRPRPDSVPRP | 0.118
RRIRARPPRLPRPRPRPDTSPRP | 0.435
RRIRARPPRLPRPRPRPDVGPRP | 0.0285
RRIRARPPRLPRPRPRPDWMPRP | 0.383
RRIRARPPRLPRPRPRPDWQPRP | 0.281
RRIRARPPRLPRPRPRPDYGPRP | -0.679
RRIRARPPRLPRPRPRPDYQPRP | -0.0168
RRIRARPPRLPRPRPRPEAFPRP | 0.0217
RRIRARPPRLPRPRPRPEAGPRP | 1.5
RRIRARPPRLPRPRPRPECFPRP | 0.938
RRIRARPPRLPRPRPRPECMPRP | 1.41
RRIRARPPRLPRPRPRPEEDPRP | 1.77
RRIRARPPRLPRPRPRPEEPPRP | 1.24

Sequence | shrunken log2 fold change
RRIRARPPRLPRPRPRPEFMPRP | 0.115
RRIRARPPRLPRPRPRPEGSPRP | 0.805
RRIRARPPRLPRPRPRPEHTPRP | 0.0124
RRIRARPPRLPRPRPRPEKNPRP | 0.538
RRIRARPPRLPRPRPRPELFPRP | 0.7
RRIRARPPRLPRPRPRPELWPRP | 1.3
RRIRARPPRLPRPRPRPEMIPRP | 0.0273
RRIRARPPRLPRPRPRPEMLPRP | 0.234
RRIRARPPRLPRPRPRPENMPRP | 0.242
RRIRARPPRLPRPRPRPENQPRP | 0.153
RRIRARPPRLPRPRPRPENYPRP | 0.0453
RRIRARPPRLPRPRPRPEPEPRP | 0.967
RRIRARPPRLPRPRPRPESCPRP | 0.869
RRIRARPPRLPRPRPRPESHPRP | 1.04
RRIRARPPRLPRPRPRPETQPRP | 1.57
RRIRARPPRLPRPRPRPEYFPRP | 0.188
RRIRARPPRLPRPRPRPEYYPRP | -0.059
RRIRARPPRLPRPRPRPFAAPRP | 0.644
RRIRARPPRLPRPRPRPFCQPRP | -0.0229
RRIRARPPRLPRPRPRPFDIPRP | -0.127
RRIRARPPRLPRPRPRPFEDPRP | 0.0795
RRIRARPPRLPRPRPRPFEPPRP | 0.276
RRIRARPPRLPRPRPRPFFYPRP | 0.105
RRIRARPPRLPRPRPRPFGGPRP | 0.0726
RRIRARPPRLPRPRPRPFHRPRP | 0.206
RRIRARPPRLPRPRPRPFIVPRP | -0.286
RRIRARPPRLPRPRPRPFKNPRP | -0.193
